Results on 6 molecules are retold here after patent publication US20240392003A1 (NUMAB THERAPEUTICS, published 2024).

Test [1] has as its target T1, human ROR1 expressed on cells (human, UniProt Q01973 30-937).
T1 construct: whole, on cells; One molecule for cell-surface ROR1 on all cell lines; the cell line is named under assay; also called hROR1; plasma membrane human ROR1
Kind of test: flow cytometry, MDA-MB-231 cells. On the technique in general: A flow cytometer gives signals particle by particle.

Test [2] has as its target T2, recombinant human ROR1 protein (Fc-Tag, Acro Biosystems RO1-H5250) (human, UniProt Q01973 30-406).
T2 construct: Bought; also called hROR1; recombinant human ROR1 ECD; not shown: Fc tag
Kind of test: SPR; hROR1-Fc immobilized.

For test [3], the target named is T3, recombinant human CD3 epsilon extra-cellular domain protein (His-Tag, SinoBiological) (human, UniProt P07766 23-126).
T3 construct: extracellular domain; Bought; also called hCD3ε; human CD3ε; not shown: His tag
The test is described as follows: SPR; hCD3ε immobilized, two-state fit. In general terms: In SPR one partner is held on a chip, and binding of the other changes the refractive index at the surface.

Test [4] deals with T3, recombinant human CD3 epsilon …. The test is described as follows: SPR; hCD3ε immobilized, two-state fit (kd1).
In test [5] the target is T4, human ROR1 (Peprotech 160-054) (human, UniProt Q01973 30-406).
T4 construct: Bought, used as analyte; also called hROR1; recombinant human ROR1 protein
The test is described as follows: SPR; MATCH4 captured, hROR1 analyte (Affinity).

The target of test [6] is T3, recombinant human CD3 epsilon …. Kind of test: SPR; hCD3ε immobilized, two-state fit (Ka1).
For test [7], the target named is T2, recombinant human ROR1 protein (Fc-Tag, …). The test is described as follows: SPR; hROR1-Fc immobilized (Avidity).
Test [8] concerns the target T5, human serum albumin (Sigma-Aldrich A3782) (human, UniProt P02768 25-609).
T5 construct: also called hSA; HSA
The test is described as follows: SPR; hSA immobilized, pH 5.5.

Test [9] addresses T3, recombinant human CD3 epsilon …. Kind of test: SPR; hCD3ε immobilized, two-state fit. This is another data set of the same source.
Test [10] has the same target. Kind of test: SPR; hCD3ε immobilized, two-state fit (ka1).
Test [11] has as its target T1, human ROR1 expressed on cells. Kind of test: cell-based or functional assay.
The target of test [12] is T2, recombinant human ROR1 protein (Fc-Tag, …). The test is described as follows: SPR; hROR1-Fc immobilized. This is another data set of the same source.
Test [13] deals with T3, recombinant human CD3 epsilon …. Kind of test: SPR; hCD3ε immobilized, two-state fit (kd1). This is another data set of the same source.
Test [14] has as its target T1, human ROR1 expressed on cells. Kind of test: flow cytometry, MDA-MB-231 cells, 1 mg/ml hSA.

Read-outs that look alike come from different tables or passages of the source.

B1: PRO2292 (scFv, V domains shown)
VH: QSQLVESGGGLVQPGGSLRLSCAVSGLSLSRNAMSWVRQAPGKCLEWIGIILTSGSTYYASWAKGRFTISKDNSKNTVYLQMNSLRAEDTAVYFCVRGIASSSLKSFWGQGTLVTVSS
VL: AQQLTQSPSSLSASVGDRVTITCQASQNVWNNNYLSWFQQKPGKPPKLLIVTASTLASGVSSRFSGSGSGTDFTLTISSLQPEDFATYYCAGGFSGEIRAFGCGTKVTVLG
notes: scFv, PRO2062 with VL-VH interdomain disulfide (AHo 141VL-51VH); also called 55-39-G02-sc05
Regarding B1, in [1], it took 0.27 nM to reach a half-maximal effect (EC50) and the “Rel. maximum binding (MFIscFv/MFIPRO2213)” value was determined as 1.18. Also, in [2], the Kd came to 0.0906 nM, the koff came to 0.000616 s⁻¹ and the kon was 6.8e+06 M⁻¹ s⁻¹.

B2: PRO2669 (bispecific antibody)
chain 1: DVQMTQSPSSLSASVGDRVTITCRASENIYSGLAWYQQKPGKPPKLLIYRASTLASGVSSRFSGSGSGTDFTLTISSLQPEDFATYYCQGGYYSSSSTYIAFGTGTKVTVLGGGGGSGGGGSGGGGSGGGGSQSQVVESGGGRVQPGGSLRLSCAVSGFDLSSYAVSWVRQAPGKGLEWIGIIYPRANTYYASWAKGRFTISKDNSKNTVYLQMNSLRAEDTATYFCARDRYDSGAYLYTTYFNLWGQGTQVTVSSGGGGSGGGGSAFELTQSPSSLSASVGDRVTITCQASESINSRLAWYQQKPGQPPKLLIYDASDLTSGVPSRFSGSGSGTDFTLTISSLQPEDFATYYCQGYGGSSTTTFGCGTKLTVLGGGSGGSDIQMTQSPSSLSASVGDRVTITCQSSQSVFSNNYLAWFQQKPGQSPKRLIYSASTLASGVPSRFSGSGSGTDFTLTISSLQPEDFATYYCLGSYACSSADCYVFGTGTKVTVLG
chain 2: DVQMTQSPSSLSASVGDRVTITCRASENIYSGLAWYQQKPGKPPKLLIYRASTLASGVSSRFSGSGSGTDFTLTISSLQPEDFATYYCQGGYYSSSSTYIAFGTGTKVTVLGGGGGSGGGGSGGGGSGGGGSQSQVVESGGGRVQPGGSLRLSCAVSGFDLSSYAVSWVRQAPGKGLEWIGIIYPRANTYYASWAKGRFTISKDNSKNTVYLQMNSLRAEDTATYFCARDRYDSGAYLYTTYFNLWGQGTQVTVSSGGGGSGGGGSEVQLVESGGGRVQPGGSLRLSCAASGFSLSSYDMSWVRQAPGKGLAWIGASYASGPTYYASWAKGRFTISRDNSKNTVYLQMNSLRAEDTATYFCARGGWTGTSHSNIWGQGTQVTVSSGGGSGGGSGGGSGEVQLVESGGGRVQPGGSLRLSCAASGFSLSSYAMNWVRQAPGKCLEWIGHINAGDIAYYATWAKGRFTISRDNSKNTVYLQMNSLRAEDTATYFCARGAGGFSTGPFKLWGQGTQVTVSS
notes: heterodimeric MATCH4, modified VH domains, variant of PRO2589; also called MATCH4 with 55-38-D07-sc02(RTQ) / 19-04-A10-sc02(RTQ) diS / 28-21-D09-sc04(RTQ) / 55-38-D07-sc02(RTQ)
For B2, the Ka2 in test [3] came to 0.0056 s⁻¹. In addition, the Kd in test [3] was 2.7 nM; in test [5] it was no more than 0.177 nM; in test [7], 0.026 nM. The Kd2 in test [3] turned out to be 0.0047 s⁻¹. Moreover, the off-rate (koff) is 0.0047 s⁻¹ in test [4], less than 1e-05 s⁻¹ in [5] and 2.6e-05 s⁻¹ in [7]. The association rate constant (kon) is 56600 M⁻¹ s⁻¹ in test [5], 810000 M⁻¹ s⁻¹ in [6] and 1e+06 M⁻¹ s⁻¹ in test [7].

B3: PRO2291 (scFv, V domains shown)
VH: QSQVVESGGGLVQPGGSLRLSCAVSGFDLSSYAVSWVRQAPGKCLEWIGIIYPRANTYYASWAKGRFTISKDNSKNTVYLQMNSLRAEDTAVYFCARDRYDSGAYLYTTYFNLWGQGTLVTVSS
VL: DVQMTQSPSSLSASVGDRVTITCRASENIYSGLAWYQQKPGKPPKLLIYRASTLASGVSSRFSGSGSGTDFTLTISSLQPEDFATYYCQGGYYSSSSTYIAFGCGTKVTVLG
notes: scFv, PRO2060 with VL-VH interdomain disulfide (AHo 141VL-51VH); also called 55-38-D07-sc06
For B3, in test [1], the EC50 is 2.74 nM and the “Rel. maximum binding (MFIscFv/MFIPRO2213)” value came out at 1.18. In test [2], the Kd turned out to be 1.12 nM, the koff amounted to 0.000302 s⁻¹ and the kon was determined as 269000 M⁻¹ s⁻¹.

B4: PRO2558 (bispecific antibody)
chain: AFELTQSPSSLSASVGDRVTITCQASESINSRLAWYQQKPGQPPKLLIYDASDLTSGVPSRFSGSGSGTDFTLTISSLQPEDFATYYCQGYGGSSTTTFGCGTKLTVLGGGGGSEVQLVESGGGLVQPGGSLRLSCAASGFSLSSYDMSWVRQAPGKGLAWIGASYASGPTYYASWAKGRFTISRDNSKNTVYLQMNSLRAEDTATYFCARGGWTGTSHSNIWGQGTLVTVSSGGGGSGGGGSGGGGSGGGGSDIQMTQSPSSLSASVGDRVTITCQSSQSVFSNNYLAWFQQKPGQSPKRLIYSASTLASGVPSRFSGSGSGTDFTLTISSLQPEDFATYYCLGSYACSSADCYVFGTGTKVTVLGGGGGSEVQLVESGGGLVQPGGSLRLSCAASGFSLSSYAMNWVRQAPGKCLEWIGHINAGDIAYYATWAKGRFTISRDNSKNTVYLQMNSLRAEDTAVYFCARGAGGFSTGPFKLWGQGTLVTVSS
modifications: Interdomain disulfide in the hSA domain (VH G51C / VL G141C, AHo numbering).
notes: also called 19-04-A10-sc06 scDb-o/28-21-D09-sc04 scDb-i/56-22-A05-sc02 scFv; not shown: C-terminal 56-22-A05-sc02 scFv and the linker leading to it
Take B4: in test [8], the Kd is 4.4 nM, the koff was found to be 0.002 s⁻¹ and the kon amounted to 460000 M⁻¹ s⁻¹.

B5: PRO2508 (bispecific antibody)
chain: AFELTQSPSSLSASVGDRVTITCQASESINSRLAWYQQKPGQPPKLLIYDASDLTSGVPSRFSGSGSGTDFTLTISSLQPEDFATYYCQGYGGSSTTTFGCGTKLTVLGGGGGSEVQLVESGGGLVQPGGSLRLSCAASGFSLSSYDMSWVRQAPGKGLAWIGASYASGPTYYASWAKGRFTISRDNSKNTVYLQMNSLRAEDTATYFCARGGWTGTSHSNIWGQGTLVTVSSGGGGSGGGGSGGGGSGGGGSDIQMTQSPSSLSASVGDRVTITCQSSQSVFSNNYLAWFQQKPGQSPKRLIYSASTLASGVPSRFSGSGSGTDFTLTISSLQPEDFATYYCLGSYACSSADCYVFGTGTKVTVLGGGGGSEVQLVESGGGLVQPGGSLRLSCAASGFSLSSYAMNWVRQAPGKCLEWIGHINAGDIAYYATWAKGRFTISRDNSKNTVYLQMNSLRAEDTAVYFCARGAGGFSTGPFKLWGQGTLVTVSSGGGGSGGGGSDVQMTQSPSSLSASVGDRVTITCRASENIYSGLAWYQQKPGKPPKLLIYRASTLASGVSSRFSGSGSGTDFTLTISSLQPEDFATYYCQGGYYSSSSTYIAFGCGTKVTVLGGGGGSGGGGSGGGGSGGGGSQSQVVESGGGLVQPGGSLRLSCAVSGFDLSSYAVSWVRQAPGKCLEWIGIIYPRANTYYASWAKGRFTISKDNSKNTVYLQMNSLRAEDTAVYFCARDRYDSGAYLYTTYFNLWGQGTLVTVSS
notes: trispecific anti-ROR1 x hSA x CD3 scMATCH3, single chain; also called 19-04-A10-sc06 scDb-o/28-21-D09-sc04 scDb-i/55-38-D07-sc06-scFv
B5: in test [9], the Kd stood at 8.5 nM, the ka2 turned out to be 0.0068 s⁻¹ and the kd2 turned out to be 0.0074 s⁻¹. Besides, the kon in [10] was 380000 M⁻¹ s⁻¹. Also, in test [11], the “EC50 (nM) Cytotoxicity (MDA-MB-231)” value is 1.7 nM. Also, in [12], the Kd is no more than 0.13 nM, the koff is less than 1e-05 s⁻¹ and the kon was 76000 M⁻¹ s⁻¹. Further, the koff in test [13] came to 0.0062 s⁻¹. Also, in test [14], the EC50 stood at 18.7 nM and the “Rel. maximum binding (MFIscMATCH3/MFIPRO2213)” value is 3.

B6: PRO2667 (bispecific antibody)
chain: AFELTQSPSSLSASVGDRVTITCQASESINSRLAWYQQKPGQPPKLLIYDASDLTSGVPSRFSGSGSGTDFTLTISSLQPEDFATYYCQGYGGSSTTTFGCGTKLTVLGGGGGSEVQLVESGGGRVQPGGSLRLSCAASGFSLSSYDMSWVRQAPGKGLAWIGASYASGPTYYASWAKGRFTISRDNSKNTVYLQMNSLRAEDTATYFCARGGWTGTSHSNIWGQGTQVTVSSGGGGSGGGGSGGGGSGGGGSDIQMTQSPSSLSASVGDRVTITCQSSQSVFSNNYLAWFQQKPGQSPKRLIYSASTLASGVPSRFSGSGSGTDFTLTISSLQPEDFATYYCLGSYACSSADCYVFGTGTKVTVLGGGGGSEVQLVESGGGRVQPGGSLRLSCAASGFSLSSYAMNWVRQAPGKCLEWIGHINAGDIAYYATWAKGRFTISRDNSKNTVYLQMNSLRAEDTATYFCARGAGGFSTGPFKLWGQGTQVTVSSGGGGSGGGGSDVQMTQSPSSLSASVGDRVTITCRASENIYSGLAWYQQKPGKPPKLLIYRASTLASGVSSRFSGSGSGTDFTLTISSLQPEDFATYYCQGGYYSSSSTYIAFGTGTKVTVLGGGGGSGGGGSGGGGSGGGGSQSQVVESGGGRVQPGGSLRLSCAVSGFDLSSYAVSWVRQAPGKGLEWIGIIYPRANTYYASWAKGRFTISKDNSKNTVYLQMNSLRAEDTATYFCARDRYDSGAYLYTTYFNLWGQGTQVTVSS
notes: trispecific anti-ROR1 x hSA x CD3 scMATCH3, single chain, modified VH domains; also called 19-04-A10-sc06(RTQ) scDb-o/28-21-D09-sc04 (RTQ) scDb-i/55-38-D07-sc02(RTQ)-scFv
Regarding B6, in [9], the Kd worked out at 4.4 nM, the ka2 came out at 0.0045 s⁻¹ and the kd2 is 0.0061 s⁻¹. Further, the on-rate (kon) in [10] came to 540000 M⁻¹ s⁻¹. Besides, in test [12], the Kd stood at 0.97 nM, the koff was 9.2e-05 s⁻¹ and the association rate constant (kon) is 95000 M⁻¹ s⁻¹. The koff in test [13] amounted to 0.0041 s⁻¹.

A word on the EC50: it is the concentration that produces a half-maximal response. The term koff denotes the first-order rate constant of dissociation. One may read the kon as a measure of how fast the partners come together.
